Test results from article PMC6094050, “O-GlcNAcylation Signal Mediates Proteasome Inhibitor Resistance in Cancer Cells by Stabilizing NRF1” (Molecular and Cellular Biology, 2018).

Biological target: T1, GST–HCF-1-C (GST fusion of the C-terminal half of human HCF-1, 1012–2036) (human, UniProt P51610 1012-2035)
T1 construct: HCF-1 (host cell factor C1), human, C-terminal half, residues 1012-2036 as printed; the printed end 2036 may count the stop codon; also called pGEX4T-1-hHCF-1-C; source: E. coli BL21(DE3), purified from soluble lysates
T1 sequence (looked up): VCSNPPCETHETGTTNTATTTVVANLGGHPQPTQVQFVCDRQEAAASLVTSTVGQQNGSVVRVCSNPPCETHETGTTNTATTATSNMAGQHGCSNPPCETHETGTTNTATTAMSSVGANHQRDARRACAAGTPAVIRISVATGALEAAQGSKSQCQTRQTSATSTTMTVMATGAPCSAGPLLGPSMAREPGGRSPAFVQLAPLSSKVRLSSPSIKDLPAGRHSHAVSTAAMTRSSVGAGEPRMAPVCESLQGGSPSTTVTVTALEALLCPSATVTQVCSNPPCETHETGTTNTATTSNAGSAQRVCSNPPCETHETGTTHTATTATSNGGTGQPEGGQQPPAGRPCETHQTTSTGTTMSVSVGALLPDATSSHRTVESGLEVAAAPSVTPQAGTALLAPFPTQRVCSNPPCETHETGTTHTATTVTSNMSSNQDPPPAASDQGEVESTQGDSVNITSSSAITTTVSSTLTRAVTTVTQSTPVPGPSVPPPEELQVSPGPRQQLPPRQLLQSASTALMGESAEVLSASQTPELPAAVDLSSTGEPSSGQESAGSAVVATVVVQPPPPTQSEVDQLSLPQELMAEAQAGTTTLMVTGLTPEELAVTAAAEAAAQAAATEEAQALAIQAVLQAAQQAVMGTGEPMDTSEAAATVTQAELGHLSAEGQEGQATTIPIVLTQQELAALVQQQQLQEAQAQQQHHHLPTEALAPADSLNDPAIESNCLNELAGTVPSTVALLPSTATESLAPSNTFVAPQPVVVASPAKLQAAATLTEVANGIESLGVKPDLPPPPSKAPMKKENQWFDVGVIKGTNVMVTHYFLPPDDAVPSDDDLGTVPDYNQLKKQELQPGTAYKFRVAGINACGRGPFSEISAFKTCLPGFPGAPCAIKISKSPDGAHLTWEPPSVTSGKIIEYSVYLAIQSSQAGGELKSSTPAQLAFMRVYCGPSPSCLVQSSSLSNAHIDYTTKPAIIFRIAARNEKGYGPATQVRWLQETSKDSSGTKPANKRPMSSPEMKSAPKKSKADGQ
Experiment: pull-down; glutathione-Sepharose-immobilized GST-OGT and GST–HCF-1-C incubated with recombinant His6-tagged NRF1 fragments Fr. 1 and Fr. 2; washed extensively with PBS-T; immunoblot with anti-His6 and anti-GST
Conditions: both partners purified

B1: mNRF1-Neh6L-His6 (Fr. 2; 431–580) (domain or fragment, mouse, UniProt Q61985 431-580, looked up)
chain: GFNPVQASQLEEEFDSDSGLSLDSSHSPSSLSSSEGSSSSSSSSSSSSASSSASSSFSEEGAVGYSSDSETLDLEEAEGAVGYQPEYSKFCRMSYQDPSQLSCLPYLEHVGHNHTYNMAPSALDSADLPPPSTLKKGSKEKQADFLDKQM
notes: NRF1, mouse, Neh6L domain, residues 431-580; The name is printed both as NRF1-Neh6L-His6 and as His6-NRF1-Neh6L; also called His6-NRF1-Neh6L; fragment 2; source: E. coli BL21(DE3), purified (Ni-NTA agarose)
B1: binds.
